Target: Nb4 × 3 (trimeric Nb4, three VHH domains in tandem) (dromedary)
Test: ELISA

B1: SARS-CoV-1 RBD-Fc (Fc fusion)
chain: not shown
Does B1 bind?
Result: binds

— publication PMC12064060 (mAbs, 2025)
